Results taken from US20020114797, “Composition and methods for modulating the length of telomeres” (Telogene Inc., published 2002).

Legend:
[1] = biological target: T1, GST-UP1 (hnRNP A1 proteolytic fragment UP1) (UniProt P49312 P49312:1-196); test: pulldown; glutathione Sepharose beads, washes at 165 mM NaCl; highest recovery; plain beads less than 10% of bound; conditions: tags: N-terminal GST fusion (inferred); label: 32P
Experimental: (§1) Following 5×1 ml washes in buffer containing 165 mM NaCl, the recovery of the labelled oligos was measured. The (TTAGGG)₃ oligonucleotide was recovered with the highest yield. A control experiment with plain beads yielded less that 10% of bound (TTAGGG)₃ oligonucleotide. A labelled DNA oligonucleotide containing the complementary sequence (CCCTAA)₃ was recovered at background level. […] UP1 associated directly with telomeric repeats carrying the TTAGGG sequence. Gel-shift assays performed with mutated oligonucleotides indicate that UP1 binds specifically to (TTAGGG)₃ oligonucleotide.
(§2) ³²P-labelled DNA oligonucleotides were mixed with Glutathione Sepharose 4B beads containing or lacking the GST-UP1 fusion protein. Following 5×1 ml washes in buffer containing 165 mM NaCl, the recovery of the labelled oligos was measured. The (TTAGGG)₃ oligonucleotide was recovered with the highest yield. A control experiment with plain beads yielded less that 10% of bound (TTAGGG)₃ oligonucleotide. A labelled DNA oligonucleotide containing the complementary sequence (CCCTAA)₃ was recovered at background level. […] Thus, UP1 can associate directly with telomeric repeats carrying the TTAGGG sequence. Furthermore, gel-shift assays performed with mutated oligonucleotides indicate that UP1 binds specifically to (TTAGGG)₃ oligonucleotide. […] It remains to be shown whether UP1 associates with telomeric repeats in vivo.

[2] = biological target: T1, GST-UP1 (hnRNP A1 proteolytic fragment …); test: pulldown; background level recovery; 165 mM NaCl washes; also tested by gel shift (FIG. 3 lane 9); conditions: tags: N-terminal GST fusion (inferred); label: 32P
Experimental: as §1, §2

T1 sequence (P49312 1-196, one chain of several): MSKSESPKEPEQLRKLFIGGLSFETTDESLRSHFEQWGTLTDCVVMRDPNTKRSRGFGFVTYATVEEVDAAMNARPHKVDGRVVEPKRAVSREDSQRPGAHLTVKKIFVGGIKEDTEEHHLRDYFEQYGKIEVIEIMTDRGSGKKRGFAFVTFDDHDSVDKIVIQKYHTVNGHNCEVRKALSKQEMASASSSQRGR

Binder	binding result [1]	binding result [2]
TTAGGGTTAGGGTTAGGG (ssDNA) [vertebrate telomeric (TTAGGG)3]	binds	–
CCCTAACCCTAACCCTAA (ssDNA) [complementary C-strand (CCCTAA)3]	–	no binding
